Measurements: the emibetuzumab library of Makowski et al. (2022)

B1: VH:VL chains; a variant is named by its letters at X, in order (parent)
chain 1: QVQLVQSGAEVKKPGASVKVSCKASGYTFTDYXMHWVRQAPGQGLEWMGXVNPNXXXTTYNQKFEGRVTMTTDTSTSTAYMELRSLRSDDTAVYYCARXNXLDXWGQGTTVTVSS
chain 2: DIQMTQSPSSLSASVGDRVTITCSVSSSVSSIYLHWYQQKPGKAPKLLIYSTSNLASGVPSRFSGSGSGTDFTLTISSLQPEDFATYYCQVYSGYPLTFGGGTKVEIK

Variants of: B1
Experiment: yeast display scFab, FACS + sequencing
In short: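 The non-specific binding call was based on sorted and sequenced yeast displaying a heavy-chain CDR mutant scFab library. Labelling used anti-Myc with biotinylated ovalbumin (260 μg/mL in PBSB, 3 h, room temperature) or soluble membrane proteins (130 μg/mL, 20 min on ice), and FACS collected the top 25% and bottom 10% of binders in two replicates. Positive meant present in ≥3 of 4 pooled positive samples and in no negatives, and negative meant the converse.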
With VGGGNAGD the non-specific binding call was “no binding”. With VGGGNDLA chain 1 R87K the non-specific binding call was “no binding”. With DGGGNVSD the non-specific binding call was “no binding”. With YGAKGDGV the non-specific binding call was “no binding”. For AGGGNDGV, the non-specific binding call was “no binding”. With AGGGNDGA the non-specific binding call was “no binding”. For SGEGGAAV, the non-specific binding call was “no binding”. In the case of AGGGNDWV, the non-specific binding call is reported as “no binding”. With AGEGNSWA the non-specific binding call was “no binding”. With DGGKNAVA the non-specific binding call was “no binding”. With DGGKNAVV the non-specific binding call was “no binding”. In the case of VGGRADGF, the non-specific binding call is reported as “binds”. For YGGRGDWV, the non-specific binding call was “no binding”. For DGGRAFWF, the non-specific binding call was “binds”. For VGEGGDAY, the non-specific binding call was “no binding”. For YGGRGSWV, the non-specific binding call was “no binding”. In the case of DGARNAAA, the non-specific binding call is reported as “no binding”. For DGGKNDAV, the non-specific binding call was “no binding”. With YGGRADVY the non-specific binding call was “no binding”. For VGAEDDVA, the non-specific binding call was “no binding”. With FGATSVSF the non-specific binding call was “binds”. With SGEEGSGA the non-specific binding call was “binds”. With YGAAGSAA the non-specific binding call was “binds”. In the case of FGAATDGV, the non-specific binding call is reported as “binds”. With DGARGALF the non-specific binding call was “binds”. For DGGKNAGD, the non-specific binding call was “no binding”. For DGGKNAGV, the non-specific binding call was “no binding”. With FGGENDGD the non-specific binding call was “no binding”. In the case of VGGGADVA, the non-specific binding call is reported as “no binding”. In the case of DGGKNDVV, the non-specific binding call is reported as “no binding”. In the case of YGGRGAVA, the non-specific binding call is reported as “no binding”. In the case of VGGRGDGS, the non-specific binding call is reported as “no binding”. For YGGKNSVD, the non-specific binding call was “no binding”. In the case of DGARNFGV, the non-specific binding call is reported as “no binding”. For DGGKGAVD, the non-specific binding call was “binds”. With YGGRGDAD the non-specific binding call was “no binding”. In the case of DGGRGDVV, the non-specific binding call is reported as “no binding”. In the case of VGGTDFVA, the non-specific binding call is reported as “no binding”. In the case of DGGRGDGA, the non-specific binding call is reported as “no binding”. In the case of DGERTAGV, the non-specific binding call is reported as “no binding”. In the case of DGAKGDGV, the non-specific binding call is reported as “no binding”. With VGGKNSVD the non-specific binding call was “no binding”. With SGEGGAGA the non-specific binding call was “no binding”. For YGARGAAF, the non-specific binding call was “binds”. In the case of DGERDYSD, the non-specific binding call is reported as “binds”. With DGEGGDWD the non-specific binding call was “binds”. In the case of SGGRDSGV, the non-specific binding call is reported as “binds”. With YGGRGYAV the non-specific binding call was “binds”. In the case of AGGENDGD, the non-specific binding call is reported as “no binding”. In the case of AGGGNAGD, the non-specific binding call is reported as “no binding”. In the case of AGERNVAS, the non-specific binding call is reported as “binds”. In the case of YGETGDSV, the non-specific binding call is reported as “no binding”. In the case of DGGGNDLA chain 1 R87K, the non-specific binding call is reported as “no binding”. In the case of VGATSFSA, the non-specific binding call is reported as “binds”. For YGGGGDVV, the non-specific binding call was “no binding”. For DGARNSGV, the non-specific binding call was “no binding”. For DGGENAGD, the non-specific binding call was “no binding”. For AGGRSFVF, the non-specific binding call was “binds”. In the case of FGATSFSV, the non-specific binding call is reported as “binds”. With SGGGNDLA chain 1 R87K the non-specific binding call was “no binding”. For SGETGDSV, the non-specific binding call was “no binding”. With YGGGGAVA the non-specific binding call was “no binding”. In the case of YGETGFGS, the non-specific binding call is reported as “binds”. With DGGEGVVY the non-specific binding call was “binds”. In the case of YGGGGASV, the non-specific binding call is reported as “binds”. For AGGRGDVD, the non-specific binding call was “no binding”. With VGGGAAGF the non-specific binding call was “no binding”. With VGGGAAGV the non-specific binding call was “no binding”. For DGARNAGV, the non-specific binding call was “no binding”. For DGGKNSVD, the non-specific binding call was “no binding”. In the case of VGGTGDVF, the non-specific binding call is reported as “no binding”. For AGGGNSGV, the non-specific binding call was “no binding”. For YGATSSLA, the non-specific binding call was “binds”. For SGGRTYGV, the non-specific binding call was “binds”. In the case of SGGKNSVD, the non-specific binding call is reported as “no binding”. With YGGGGVAA the non-specific binding call was “binds”. In the case of VGGGADGV, the non-specific binding call is reported as “no binding”. In the case of VGGGADGA, the non-specific binding call is reported as “no binding”. For DGGKNDGV, the non-specific binding call was “no binding”. With DGGKNDGD the non-specific binding call was “no binding”. For DGGKNDGS, the non-specific binding call was “no binding”. With FGAAAVGD the non-specific binding call was “binds”. For FGEEDFSS chain 1 W105R, the non-specific binding call was “binds”. For VGEKGDGV, the non-specific binding call was “no binding”. In the case of DGGKNDWV, the non-specific binding call is reported as “no binding”. With FGAKTASF the non-specific binding call was “no binding”. For VGATSVSF, the non-specific binding call was “binds”. For VGETSYVD, the non-specific binding call was “binds”. With VGARNSGV the non-specific binding call was “no binding”. With DGGENDVY the non-specific binding call was “no binding”. With DGGENDVF the non-specific binding call was “no binding”. With DGGADVGA the non-specific binding call was “binds”. In the case of DGGKNDLA, the non-specific binding call is reported as “no binding”. In the case of YGGRAAGA, the non-specific binding call is reported as “binds”. In the case of SGAGDYSD, the non-specific binding call is reported as “binds”. For SGEGGAVA, the non-specific binding call was “no binding”. For DGGGGYWF, the non-specific binding call was “binds”. For YGARNAAV, the non-specific binding call was “binds”. With DGGGASSA the non-specific binding call was “no binding”. With YGAGDFGA the non-specific binding call was “binds”. In the case of SGEGNSWA, the non-specific binding call is reported as “no binding”. With FGGEGDGA the non-specific binding call was “binds”. With VGGGGDGS the non-specific binding call was “no binding”. For VGGGASGV, the non-specific binding call was “no binding”. In the case of FGAKGSSS, the non-specific binding call is reported as “binds”. With DGGRSAVF the non-specific binding call was “no binding”. With DGGRGDAF the non-specific binding call was “no binding”. For YGETGFWY, the non-specific binding call was “binds”. In the case of AGETGFSA, the non-specific binding call is reported as “binds”. With DGGGNDLV the non-specific binding call was “no binding”. In the case of VGAEGVWS chain 1 G66S, the non-specific binding call is reported as “binds”. In the case of VGGGGAAD, the non-specific binding call is reported as “no binding”. With AGGGNDVV the non-specific binding call was “no binding”. With AGGGNDVY the non-specific binding call was “no binding”.
